Experimental data reported in article PMC6746995, “Nanomechanics of tip-link cadherins” (Scientific Reports, 2019).

Target: the molecule itself
Assay: AFM imaging + single-molecule force spectroscopy (AFM-SMFS); purified ectodomains in 50 mM TrisHCl/150 mM NaCl/1 mM CaCl2 pH 7.5; imaging on freshly cleaved mica, tapping mode in liquid; SMFS on NTA-Ni2+ coverslips through the His tags, differing persistence length across a trace taken as two cadherins stretched in parallel

B1: His-tagged full murine PCDH15 ectodomain (domain or fragment)
chain: not shown
notes: protocadherin 15 (PCDH15), murine, full ectodomain (11 EC domains), UniProtKB Q99PJ1; also called protocadherin 15; full-length PCDH15 ectodomain; not shown: His tag, C-terminal, kept
**Q.** Does B1 bind?
**A.** Result: binds
